{
  "source": "patent US20110212106A1",
  "about": "“HIV-1 NE[…] USES THEREOF” (priority 2010, published 2011)",
  "key": {"[1]": {"target": "IIIB gp120 envelope protein (HIV-1 IIIB) (UniProt P03375)", "test": "ELISA, inhibition of gp120 binding to solid-phase sCD4"}, "[2]": {"target": "HIV-1 gp120 (strain not stated at these places) (HIV-1)", "test": "competition ELISA on immobilized gp120, competitor labeled HJ16"}},
  "data": [
    {"substance": "b12 (antibody)", "values": [
      {"measurement": "IC50", "setting": "[1]", "value": 1.16, "unit": "µg/mL"},
      {"measurement": "plateau of inhibition", "setting": "[2]", "value": 80, "unit": "%"}
    ]}
  ]
}
